Numbering of substitutions follows the chain as printed. Numbers in names are those of the source.
T1: TNFR1 (Homo sapiens, UniProt P19438)
T1 chain: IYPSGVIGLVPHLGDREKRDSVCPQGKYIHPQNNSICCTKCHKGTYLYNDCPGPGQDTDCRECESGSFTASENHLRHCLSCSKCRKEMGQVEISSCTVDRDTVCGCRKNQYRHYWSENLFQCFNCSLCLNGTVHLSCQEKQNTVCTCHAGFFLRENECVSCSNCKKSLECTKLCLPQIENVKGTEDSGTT

B1: L27E (designed binder)
chain: MTLQELLREEALRRAEAEAFRYALELEAEKFPEQKEYLLDLAEEIESQIRSLSGVDVEDVRKFLDKEWAWVKELLAEHPAELAEVEAARAARLAELRAEVEAKVAA
B2: E44F (designed binder)
chain: B1 chain with E27L, E44F
B3: E81I (designed binder)
chain: B1 chain with E27L, E81I
B4: G54Q (designed binder)
chain: B1 chain with E27L, G54Q
B5: R14Q (designed binder)
chain: B1 chain with R14Q, E27L
B6: E101W (designed binder)
chain: B1 chain with E27L, E101W
B7: E101M (designed binder)
chain: B1 chain with E27L, E101M
B8: E86P (designed binder)
chain: B1 chain with E27L, E86P
B9: A28V (designed binder)
chain: B1 chain with E27L, A28V
B10: K62L (designed binder)
chain: B1 chain with E27L, K62L
B11: R14C (designed binder)
chain: B1 chain with R14C, E27L
B12: E46T (designed binder)
chain: B1 chain with E27L, E46T
B13: P79N (designed binder)
chain: B1 chain with E27L, P79N
B14: A17C (designed binder)
chain: B1 chain with A17C, E27L
B15: L93Y (designed binder)
chain: B1 chain with E27L, L93Y
B16: R50S (designed binder)
chain: B1 chain with E27L, R50S
B17: E29Y (designed binder)
chain: B1 chain with E27L, E29Y
B18: D56P (designed binder)
chain: B1 chain with E27L, D56P
B19: L26G (designed binder)
chain: B1 chain with L26G, E27L
B20: R13Q (designed binder)
chain: B1 chain with R13Q, E27L
B21: L7M (designed binder)
chain: B1 chain with L7M, E27L
B22: E10Y (designed binder)
chain: B1 chain with E10Y, E27L
B23: A19Q (designed binder)
chain: B1 chain with A19Q, E27L
B24: Y22E (designed binder)
chain: B1 chain with Y22E, E27L
B25: E16H (designed binder)
chain: B1 chain with E16H, E27L
B26: E99H (designed binder)
chain: B1 chain with E27L, E99H
B27: K72C (designed binder)
chain: B1 chain with E27L, K72C
B28: A17F (designed binder)
chain: B1 chain with A17F, E27L
B29: K62R (designed binder)
chain: B1 chain with E27L, K62R
B30: R97K (designed binder)
chain: B1 chain with E27L, R97K
B31: K103E (designed binder)
chain: B1 chain with E27L, K103E
B32: E46M (designed binder)
chain: B1 chain with E27L, E46M
B33: L12E (designed binder)
chain: B1 chain with L12E, E27L
B34: E25H (designed binder)
chain: B1 chain with E25H, E27L
B35: L26S (designed binder)
chain: B1 chain with L26S, E27L
B36: L52P (designed binder)
chain: B1 chain with E27L, L52P
B37: R14V (designed binder)
chain: B1 chain with R14V, E27L
B38: A94M (designed binder)
chain: B1 chain with E27L, A94M
B39: P32R (designed binder)
chain: B1 chain with E27L, P32R
B40: K62A (designed binder)
chain: B1 chain with E27L, K62A

Target: T1, TNFR1
Assay: yeast display SC50

Row | Binder | apparent Kd (screen)
1 | B1 | 0.869 nM
2 | B2 | 16.7 nM
3 | B3 | 0.49 nM
4 | B4 | 1.05 nM
5 | B5 | 0.593 nM
6 | B6 | 0.49 nM
7 | B7 | 0.653 nM
8 | B8 | 4.83 nM
9 | B9 | 2.05 nM
10 | B10 | 0.653 nM
11 | B11 | 0.539 nM
12 | B12 | 0.653 nM
13 | B13 | 0.539 nM
14 | B14 | 0.446 nM
15 | B15 | 0.539 nM
16 | B16 | 0.653 nM
17 | B17 | 0.539 nM
18 | B18 | 6.43 nM
19 | B19 | 0.446 nM
20 | B20 | 0.142 nM

Row | Binder | apparent Kd (screen)
21 | B21 | 2.48 nM
22 | B22 | 0.653 nM
23 | B23 | 0.446 nM
24 | B24 | 0.304 nM
25 | B25 | 0.718 nM
26 | B26 | 0.49 nM
27 | B27 | 0.718 nM
28 | B28 | 0.49 nM
29 | B29 | 0.539 nM
30 | B30 | 0.539 nM
31 | B31 | 0.79 nM
32 | B32 | 0.49 nM
33 | B33 | 1.27 nM
34 | B34 | 0.718 nM
35 | B35 | 0.49 nM
36 | B36 | 6.43 nM
37 | B37 | 0.956 nM
38 | B38 | 0.718 nM
39 | B39 | 0.539 nM
40 | B40 | 0.593 nM

Source: publication PMC12416549 (2024)
